Assay results: US20240116985A1 (published 2024)
Starred links: 1 amine or outer side, 2 acyl side, 3 side chain; linkers in the order of their positions; H or OH if unused. Positions of bridges follow the written chain, without caps; N, C: chain ends. Non-standard residues stand in square brackets, D forms with d. Primed or numbered codes have the meaning given here. PyrS2″ = (S)-3-amino-1-((pent-4-en-1-yloxy)carbonyl)pyrrolidine-3-carboxylic acid (stapling residue), C=CCCCOC(=O)N1CC[C@@](N[*:1])(C(=O)[*:2])C1; B5(4) = 2,2-bis(4-pentenyl)glycine = 2-amino-2-(pent-4-en-1-yl)hept-6-enoic acid (stitching residue), C=CCCCC(CCCC=C)(N[*:1])C(=O)[*:2]; B5(5) = 2,2-bis(4-pentenyl)glycine, 2-amino-2-(pent-4-en-1-yl)hept-6-enoic acid (stitching residue), C=CCCCC(CCCC=C)(N[*:1])C(=O)[*:2]; PyrS2 = (S)-3-amino-1-((pent-4-en-1-yloxy)carbonyl)pyrrolidine-3-carboxylic acid, C=CCCCOC(=O)N1CC[C@@](N[*:1])(C(=O)[*:2])C1; B5(19) = 2-amino-2-(pent-4-en-1-yl)hept-6-enoic acid (bis(4-pentenyl)glycine), C=CCCCC(CCCC=C)(N[*:1])C(=O)[*:2]; Phe(2-Cl) = N[C@@H](Cc1ccccc1Cl)C(=O)O; Bta = N[C@@H](Cc1csc2ccccc12)C(=O)O; αAllylPro = C=CC[C@@]1(C(=O)O)CCCN1; S8 = C=CCCCCCC[C@](C)(N)C(=O)O

T1: beta-catenin (Homo sapiens (Human), UniProt P35222 1-781)
T1 construct: The FP protocol says full-length beta-Catenin (Uniprot ID P35222); also called full-length beta-Catenin; bCat
T1 sequence: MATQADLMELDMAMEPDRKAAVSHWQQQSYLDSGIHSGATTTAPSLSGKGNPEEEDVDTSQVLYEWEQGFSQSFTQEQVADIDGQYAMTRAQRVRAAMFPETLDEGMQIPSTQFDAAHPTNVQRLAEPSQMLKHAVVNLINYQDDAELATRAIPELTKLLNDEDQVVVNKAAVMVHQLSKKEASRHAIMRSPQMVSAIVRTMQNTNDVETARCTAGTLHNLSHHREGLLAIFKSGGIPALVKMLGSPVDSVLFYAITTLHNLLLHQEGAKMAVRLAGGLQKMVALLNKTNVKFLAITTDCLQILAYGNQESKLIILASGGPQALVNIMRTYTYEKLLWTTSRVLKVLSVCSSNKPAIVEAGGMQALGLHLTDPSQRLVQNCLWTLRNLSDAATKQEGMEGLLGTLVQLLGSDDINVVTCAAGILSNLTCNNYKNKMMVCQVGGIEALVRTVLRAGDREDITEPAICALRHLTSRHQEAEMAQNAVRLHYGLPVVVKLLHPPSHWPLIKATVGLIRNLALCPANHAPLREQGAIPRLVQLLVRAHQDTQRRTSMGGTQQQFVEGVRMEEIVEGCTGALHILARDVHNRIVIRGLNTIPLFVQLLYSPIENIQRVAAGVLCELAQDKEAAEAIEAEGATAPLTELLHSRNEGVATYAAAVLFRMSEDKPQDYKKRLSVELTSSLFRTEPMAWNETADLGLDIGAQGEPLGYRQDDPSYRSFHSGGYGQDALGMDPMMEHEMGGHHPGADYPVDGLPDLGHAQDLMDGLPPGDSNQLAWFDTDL

T2: B-cat-Halo (beta-catenin HaloTag NanoBRET construct expressed in HEK293 cells) (UniProt P35222 1-781, HaloTag NanoBRET 618 Ligand bound to the HaloTag)
T2 sequence (looked up): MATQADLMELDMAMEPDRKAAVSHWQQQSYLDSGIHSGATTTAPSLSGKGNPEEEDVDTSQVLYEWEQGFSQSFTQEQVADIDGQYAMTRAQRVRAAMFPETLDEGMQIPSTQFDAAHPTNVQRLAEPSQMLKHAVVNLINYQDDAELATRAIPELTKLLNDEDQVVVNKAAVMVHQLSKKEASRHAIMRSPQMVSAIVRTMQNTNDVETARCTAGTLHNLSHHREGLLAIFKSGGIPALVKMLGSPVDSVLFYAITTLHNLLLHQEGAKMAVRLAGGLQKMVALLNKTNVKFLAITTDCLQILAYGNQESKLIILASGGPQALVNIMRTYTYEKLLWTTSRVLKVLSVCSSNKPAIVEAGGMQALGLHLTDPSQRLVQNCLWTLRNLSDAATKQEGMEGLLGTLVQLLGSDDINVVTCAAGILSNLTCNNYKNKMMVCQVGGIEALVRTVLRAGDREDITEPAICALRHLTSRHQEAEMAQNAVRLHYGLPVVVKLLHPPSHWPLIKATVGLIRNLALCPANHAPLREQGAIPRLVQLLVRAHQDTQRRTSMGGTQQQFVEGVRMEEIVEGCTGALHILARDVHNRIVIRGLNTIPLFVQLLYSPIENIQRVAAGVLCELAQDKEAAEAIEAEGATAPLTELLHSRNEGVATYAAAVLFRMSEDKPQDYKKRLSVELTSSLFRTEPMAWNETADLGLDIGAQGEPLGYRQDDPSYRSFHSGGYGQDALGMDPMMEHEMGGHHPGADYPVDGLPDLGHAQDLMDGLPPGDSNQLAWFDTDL

T3: full-length beta-Catenin (Uniprot ID P35222) (Homo sapiens (Human), UniProt P35222 1-781)
T3 construct: Any tags on the recombinant protein are not described for the FP assay; also called bCat; B-Catenin
T3 sequence: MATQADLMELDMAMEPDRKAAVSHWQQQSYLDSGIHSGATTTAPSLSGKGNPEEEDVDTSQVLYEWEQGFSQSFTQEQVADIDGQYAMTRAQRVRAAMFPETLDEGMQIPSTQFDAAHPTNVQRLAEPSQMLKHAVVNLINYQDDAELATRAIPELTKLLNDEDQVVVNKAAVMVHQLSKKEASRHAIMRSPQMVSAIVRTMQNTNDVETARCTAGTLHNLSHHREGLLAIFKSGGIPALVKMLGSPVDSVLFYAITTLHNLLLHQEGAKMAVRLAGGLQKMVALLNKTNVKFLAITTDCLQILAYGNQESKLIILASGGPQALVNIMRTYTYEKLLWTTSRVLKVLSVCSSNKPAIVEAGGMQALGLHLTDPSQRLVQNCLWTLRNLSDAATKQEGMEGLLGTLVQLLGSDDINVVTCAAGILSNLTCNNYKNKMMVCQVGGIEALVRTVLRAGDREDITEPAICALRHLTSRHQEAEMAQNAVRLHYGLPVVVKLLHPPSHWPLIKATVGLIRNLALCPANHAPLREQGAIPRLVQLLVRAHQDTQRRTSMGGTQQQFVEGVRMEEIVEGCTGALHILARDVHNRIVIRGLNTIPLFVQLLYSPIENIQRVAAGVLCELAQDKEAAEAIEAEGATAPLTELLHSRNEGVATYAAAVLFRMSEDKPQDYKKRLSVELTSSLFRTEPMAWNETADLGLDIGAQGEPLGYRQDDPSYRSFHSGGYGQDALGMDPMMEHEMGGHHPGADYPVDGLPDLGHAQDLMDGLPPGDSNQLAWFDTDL


How the values were obtained:
[1] = target: T1, beta-catenin; assay: fluorescence polarization competition; full-length beta-catenin with 5FAM-TCF4(10-53) probe as competitor
Procedure, shortened: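 Data fitted to 1:1 binding model with hill slope from duplicate reads taken after 60 minutes at 20° C. in the dark.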

[2] = target: T2, B-cat-Halo (beta-catenin HaloTag …); assay: cell-based or functional assay
[3] = target: T3, full-length beta-Catenin (Uniprot ID …); assay: fluorescence polarization competition; displacement of 5FAM-TCF4(10-53) from full-length beta-catenin
Procedure: The plate was incubated protected from light for 60 minutes at 20° C. prior to read. Reads were performed on a CLARIOstar plate reader (BMG Labtech) in duplicate, and data were fitted to a 1:1 binding model with hill slope using an in-house script. All provided concentrations are final concentrations.

Row | EC50 [1] [nM] | NanoBRET Abs IC50 [2] [nM] | IC50 [3] [nM] | Binder
1 | 106 | – | – | Ac-[αAllylPro]DL[B5(4)]DDAAFL[PyrS2″][Phe(2-Cl)][Bta]L-NH2 (staple 1-4, 4-11; also: staple isomer composition of earlier HPLC peak, stapled peptide) [I-1418]
2 | 235 | – | – | Ac-[αAllylPro]DT[B5(4)]DDAAFL[PyrS2][Phe(2-Cl)][Bta]L-NH2 (staple 1-4, 4-11, stapled peptide) [I-1424]
3 | 388 | – | – | Ac-[αAllylPro]DN[B5(4)]DDAAFL[PyrS2″][Phe(2-Cl)][Bta]L-NH2 (staple 1-4, 4-11, stapled peptide) [I-1422]
4 | 389 | – | – | Ac-[αAllylPro]DS[B5(4)]DDAAFL[PyrS2][Phe(2-Cl)][Bta]L-NH2 (staple 1-4, 4-11, stapled peptide) [I-1423]
5 | 9 | – | – | Ac-[αAllylPro]DL[B5(19)]DDAAFL[PyrS2]F[Bta]Q-NH2 (staple 1-4, 4-11, stapled peptide) [I-1402]
6 | – | > 20000 | 84 | Ac-[αAllylPro]DS[B5(5)]DEAAFQ[S8]F[Bta]Q-NH2 (staple 1-4, 4-11; also: staple isomer, earlier eluting HPLC peak, Stapled peptide composition; It has the same description as I-1527 and is the staple isomer composition of the earlier eluting HPLC peak) [I-1526: Ac-PL3-Asp-Ser-B5-Asp-Glu-Ala-Ala-Phe-Gln-S8-Phe-BztA-Gln-NH2]
